Ten molecules from patent US20170015742A1 (published 2017) can be followed below.

B1: CL-33578-IgG (antibody, V domains shown)
VH: EVTLRESGPALVKPTQTLTLTCTFSGFSLSTYGMGVGWIRQPPGKALEWLANIWWDDDKYYNPSLKNRLTISKDTSKNQVVLTMTNMDPVDTATYYCARIQSGWTNYEFDYWGQGTMVTVSS
VL: EIVLTQSPGTLSLSPGERATLSCERSSGDIGDSYVSWYQQKPGQAPRLVIYADDQRPSGIPDRFSGSGSGTDFTLTISRLEPEDFAVYYCQSYDINIDIVFGGGTKVEIK
B2: CL-33759-IgG (antibody, V domains shown)
VH: B1 VH with Q101E, G103V, N106R, E108D
VL: B1 VL with G31W, D32Q, S33T, A52G, P57A, N96D, V100T
B3: CL-33675-IgG (antibody, V domains shown)
VH: B1 VH with Q101E, G103S, W104G, T105P, N106K, E108S
VL: B1 VL with E24R, R25A, D29S, G31W, D32Y, Y34F, V49L, P57A, D94G, I99V
B4: CL-33587-IgG (antibody, V domains shown)
VH: B1 VH with G103M, N106R, E108D
VL: B1 VL
B5: CL-33737-IgG (antibody, V domains shown)
VH: B1 VH with Q41K, Q101E, G103S, W104G, T105P, N106K, E108S
VL: B1 VL with E24R, R25A, D29S, G31W, D32Y, Y34F, V49L, P57A, D94G, I99V
B6: CL-33845-IgG (antibody, V domains shown)
VH: B1 VH with Q101V, G103D, N106T, E108S
VL: B1 VL with E24R, R25A, D29S, G31W, D32Y, Y34F, V49L, P57A, D94G, I99V
B7: CL-33699-IgG (antibody, V domains shown)
VH: B1 VH with V36I, Q101E, G103M, W104G, T105P, N106K, E108A
VL: B1 VL with E24R, R25A, D29S, G31W, D32Y, Y34F, V49L, P57A, D94G, I99V
B8: CL-33767-IgG (antibody, V domains shown)
VH: B1 VH with Q101E, G103I, W104G, T105P, N106K, E108S
VL: B1 VL with E24R, R25A, D29S, G31W, D32Y, Y34F, V49L, P57A, D94G, I99V
B9: CL-33682-IgG (antibody, V domains shown)
VH: B1 VH with Q101E, G103S, N106S, E108S
VL: B1 VL with D29S, I30N, G31Y, S33T, V49L, Q55L, P57A, D94G, I99V
B10: chBEW-10H2 (antibody, human IgG1, kappa, L234A L235A, V domains shown)
VH: QIQLVQSGPELKKPGESVKISCKASGYSFTNFGLYWVKQAPGQGLQYMGWIDTETGKPTYADDFRGRFVFFLETSASTAYLQINNLKNEDMATYFCARVYGYPSWYFDFWGPGTMVTVSS
VL: DIQMTQSPASLSTSLEEIVTITCQASQDIDNYLSWYQQKPGKSPQLLIHSATSLADGVPSRFSGSRSGTQFSLKIHRLQVEDTGIYYCLQHFFPPWTFGGGTKLELKR
notes: also called chBEW-10H2-B9

Changes are numbered by the printed parent chain.

One assay deals with T1, Human PDGF-BB (human, UniProt P01127 82-190). Nature of the assay: cell-based or functional assay.
Regarding B1, the “hPDGF-BB NIH-3T3 Proliferation IC50” value is 0.033 nM.

In the case of B2, the “hPDGF-BB NIH-3T3 Proliferation IC50” value was 0.293 nM.

In the case of B3, the “hPDGF-BB NIH-3T3 Proliferation IC50” value amounted to 0.04 nM.

B4: the “hPDGF-BB NIH-3T3 Proliferation IC50” value worked out at 0.046 nM.

Take B5: the “hPDGF-BB NIH-3T3 Proliferation IC50” value was 0.03 nM.

Take B6: the “hPDGF-BB NIH-3T3 Proliferation IC50” value turned out to be 0.171 nM.

As to B7, the “hPDGF-BB NIH-3T3 Proliferation IC50” value was found to be 0.033 nM.

On to B8, for which the “hPDGF-BB NIH-3T3 Proliferation IC50” value turned out to be 0.09 nM.

Turning to B9, the “hPDGF-BB NIH-3T3 Proliferation IC50” value was determined as 0.03 nM.

In another assay the target is T2, Cynomolgus monkey PDGF-BB (cynomolgus monkey, UniProt P01127 82-190 (human entry), limits assumed).
T2 chain: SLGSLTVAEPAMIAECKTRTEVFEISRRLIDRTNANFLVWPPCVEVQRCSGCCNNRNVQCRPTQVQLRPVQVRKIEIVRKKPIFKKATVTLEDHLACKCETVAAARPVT
Nature of the assay: cell-based or functional assay.
Take B1: the “cynoPDGF-BB NIH-3T3 Proliferation IC50” value is 0.023 nM.

In the case of B2, the “cynoPDGF-BB NIH-3T3 Proliferation IC50” value was 0.18 nM.

Take B3: the “cynoPDGF-BB NIH-3T3 Proliferation IC50” value was determined as 0.024 nM.

Take B4: the “cynoPDGF-BB NIH-3T3 Proliferation IC50” value amounted to 0.029 nM.

In the case of B5, the “cynoPDGF-BB NIH-3T3 Proliferation IC50” value amounted to 0.024 nM.

Consider B6, for which the “cynoPDGF-BB NIH-3T3 Proliferation IC50” value is 0.073 nM.

Regarding B7, the “cynoPDGF-BB NIH-3T3 Proliferation IC50” value turned out to be 0.016 nM.

Regarding B8, the “cynoPDGF-BB NIH-3T3 Proliferation IC50” value amounted to 0.042 nM.

In the case of B9, the “cynoPDGF-BB NIH-3T3 Proliferation IC50” value was found to be 0.019 nM.

The target in another assay is T1, Human PDGF-BB. Kind of assay: Biacore SPR, antibody captured by anti-human Fc, PDGF-BB as analyte. The procedure:
Unreacted moieties on the biosensor surface were blocked with ethanolamine. For kinetic analysis, rate equations derived from the 1:1 Langmuir binding model were fitted simultaneously to multiple antigen injections (using global fit analysis) with the use of Scrubber 2 (BioLogic Software), Biacore Biaevaluation 4.0.1 software or Biacore T100 Evaluation software. Purified antibodies or DVD-Ig molecules were diluted in running buffer for capture across goat anti-human Fc reaction surfaces. Antibodies or DVD-Ig molecules to be captured as a ligand (1 μg/ml) were injected over reaction matrices at a flow rate of 10 μl/minute. During the assay, all measurements were referenced against the capture surface alone (i.e., with no captured antibody or DVD-Ig molecule). […] The equilibrium dissociation constant KD (M) of the reaction between antibodies and the target antigen was then calculated from the kinetic rate constants by the following formula: KD=Koff/Kₒₙ. Binding was recorded as a function of time and kinetic rate constants were calculated. In this assay, on-rates as fast as 10⁶M⁻¹s⁻¹ and off-rates as slow as 10⁻⁶ s⁻¹ could be measured. […]
With B1, the Kd is at most 0.0003 nM and the on-rate (kon) is at least 9e+07 M⁻¹ s⁻¹.

Molecule B3 came in with a dissociation constant (Kd) of 0.00061 nM and an on-rate (kon) of 3.6e+07 M⁻¹ s⁻¹.

B4 displayed a Kd of at most 0.00022 nM and a kon of at least 9e+07 M⁻¹ s⁻¹.

With B9, the Kd is at most 0.00024 nM and the association rate constant (kon) is at least 9e+07 M⁻¹ s⁻¹.

The target of a further assay is T3, Human VEGF-A 165 (human, UniProt P15692 207-395).
T3 construct: Recombinant human VEGF165; also called huVEGF-A165; hVEGF165
T3 sequence (P15692 other isoform, or with tags, fused parts or gaps): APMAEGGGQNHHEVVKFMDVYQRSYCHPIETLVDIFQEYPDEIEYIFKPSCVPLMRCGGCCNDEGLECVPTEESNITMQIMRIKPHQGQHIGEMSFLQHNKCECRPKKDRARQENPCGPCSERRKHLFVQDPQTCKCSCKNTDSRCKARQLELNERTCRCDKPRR
Nature of the assay: SPR (Biacore), antibody captured by anti-human Fc, hVEGF165 as analyte. The procedure:
For example, approximately 9000 RU of goat anti-human Fc specific polyclonal antibody (Thermo Fisher Scientific Inc., Rockford, Ill.) diluted in 10 mM sodium acetate (pH 4.5) is directly immobilized across a CM5 research grade biosensor chip using a standard amine coupling kit according to manufacturer's instructions and procedures at 25 μg/ml. Unreacted moieties on the biosensor surface were blocked with ethanolamine. For kinetic analysis, rate equations derived from the 1:1 Langmuir binding model were fitted simultaneously to multiple antigen injections (using global fit analysis) with the use of Scrubber 2 (BioLogic Software), Biacore Biaevaluation 4.0.1 software or Biacore T100 Evaluation software. Purified antibodies or DVD-Ig molecules were diluted in running buffer for capture across goat anti-human Fc reaction surfaces. Antibodies or DVD-Ig molecules to be captured as a ligand (1 μg/ml) were injected over reaction matrices at a flow rate of 10 μl/minute. During the assay, all measurements were referenced against the capture surface alone (i.e., with no captured antibody or DVD-Ig molecule). […] The equilibrium dissociation constant KD (M) of the reaction between antibodies and the target antigen was then calculated from the kinetic rate constants by the following formula: KD=Koff/Kₒₙ. Binding was recorded as a function of time and kinetic rate constants were calculated.
Take B10: the equilibrium dissociation constant (Kd) was 0.013 nM and the on-rate constant (kon) worked out at 2.8e+07 M⁻¹ s⁻¹.

The target in another assay is T1, Human PDGF-BB. Nature of the assay: competition ELISA: antibody pre-incubated with hPDGF-BB-biotin, binding to coated hPDGF-Rβ-Fc. The procedure: Plates were then washed four times with wash buffer (TBS, 0.05% Tween-20) and blocked with Superblock blocking buffer (Thermo Scientific, cat#37535). During the blocking step, supernatants, antibodies, benchmark compounds or DVD-Ig were diluted in assay diluent (10% Superblock containing 0.05% surfactamps) and an eight point titration of each sample molecule was performed. […] Following incubation, plates were washed four times with wash buffer. Detection reagent Streptavidin-polyHRP-40 (Fitzgerald, cat#65r-s104phrp) was diluted in assay diluent and added to plates (50 μL) for 45 minutes at 25° C. with shaking. Plates were washed four times with wash buffer and developed with the addition of Enhanced K-blue TMB substrate (Neogen, cat#308177). The reaction was stopped with 2N sulfuric acid (VWR, cat# BDH3500-1) and the absorbance was read at 450 nm-570 nm. […] Data was analyzed using Softmax Pro 4.8 software and IC₅₀ values calculated using a sigmoidal dose response (variable slope) fit in GraphPad Prism 5.
Potency was evaluated in both cell-based and ELISA formats.
The molecule B1 displayed an IC50 of 0.049 nM.

Regarding B2, the 50% inhibitory concentration (IC50) was found to be 1.27 nM.

B3 came in with an IC50 of 0.054 nM.

Consider B4, for which the IC50 was below 0.1 nM.

In the case of B5, the 50% inhibitory concentration (IC50) amounted to 0.092 nM.

In the case of B6, the IC50 was found to be 0.409 nM.

B7 came in with a concentration for half-maximal inhibition (IC50) of 0.072 nM.

For the molecule B8, the half-inhibitory concentration (IC50) came out at 0.114 nM.

In turn, B9 registered a half-inhibitory concentration (IC50) of 0.069 nM.
